For experiment [1], the target named is human IgG4 (human) [IgG part: P01861]. Kind of experiment: mini-column chromatography, immobilised ligand.
Experiment [2] addresses human IgG2 (human) [IgG part: P01859]. Briefly: mini-column chromatography, immobilised ligand.
For experiment [3], the target named is human IgG1 (human) [IgG part: P01857]. Kind of experiment: mini-column chromatography, immobilised ligand.
Experiment [4] has as its target human IgG (unfractionated, polyclonal). Briefly: filterplate; ligand density not determined.
Experiment [5] shares this target. Kind of experiment: mini-column; ligand density not determined.
Experiment [6] addresses human IgG4 (human) [IgG part: P01861]. Kind of experiment: batch binding, immobilised ligand.
Experiment [7] concerns the target human IgG2 (human) [IgG part: P01859]. Briefly: batch binding, immobilised ligand.
Experiment [8] has as its target human IgG1 (human) [IgG part: P01857]. Briefly: batch binding, immobilised ligand.
Experiment [9] has as its target human IgG3 (human) (UniProt P01860). Briefly: batch binding, immobilised ligand.

Sequence of human IgG4 (human) [IgG part: P01861] (P01861 other isoform, or with tags, fused parts or gaps): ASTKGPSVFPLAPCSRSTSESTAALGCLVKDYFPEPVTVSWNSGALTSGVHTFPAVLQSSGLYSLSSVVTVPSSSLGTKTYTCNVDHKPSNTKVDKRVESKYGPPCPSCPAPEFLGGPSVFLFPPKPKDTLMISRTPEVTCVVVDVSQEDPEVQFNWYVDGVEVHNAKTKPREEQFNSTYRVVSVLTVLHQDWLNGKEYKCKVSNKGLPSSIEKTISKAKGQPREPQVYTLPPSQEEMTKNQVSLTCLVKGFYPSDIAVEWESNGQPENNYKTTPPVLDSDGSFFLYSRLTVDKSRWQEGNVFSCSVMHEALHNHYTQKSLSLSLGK
Sequence of human IgG2 (human) [IgG part: P01859] (P01859 other isoform, or with tags, fused parts or gaps): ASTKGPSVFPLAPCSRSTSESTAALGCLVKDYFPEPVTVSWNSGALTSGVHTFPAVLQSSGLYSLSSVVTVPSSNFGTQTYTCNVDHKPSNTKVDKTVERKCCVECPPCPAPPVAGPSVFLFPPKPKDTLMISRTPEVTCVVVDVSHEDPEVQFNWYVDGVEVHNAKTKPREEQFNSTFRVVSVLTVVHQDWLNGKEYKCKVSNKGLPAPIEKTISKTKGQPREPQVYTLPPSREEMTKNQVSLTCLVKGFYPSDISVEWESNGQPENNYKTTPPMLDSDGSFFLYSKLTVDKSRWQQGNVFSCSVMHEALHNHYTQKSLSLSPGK
Sequence of human IgG1 (human) [IgG part: P01857] (P01857 other isoform, or with tags, fused parts or gaps): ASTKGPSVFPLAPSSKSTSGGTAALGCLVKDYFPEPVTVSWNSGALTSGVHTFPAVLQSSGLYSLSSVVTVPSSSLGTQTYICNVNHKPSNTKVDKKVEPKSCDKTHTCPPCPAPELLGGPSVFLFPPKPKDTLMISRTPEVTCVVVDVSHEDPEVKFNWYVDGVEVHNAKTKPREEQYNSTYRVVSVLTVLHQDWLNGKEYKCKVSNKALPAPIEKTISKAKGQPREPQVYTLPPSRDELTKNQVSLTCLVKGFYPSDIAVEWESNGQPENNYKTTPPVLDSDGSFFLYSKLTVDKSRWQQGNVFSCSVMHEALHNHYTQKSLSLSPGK
Sequence of human IgG3 (human) (P01860 other isoform, or with tags, fused parts or gaps): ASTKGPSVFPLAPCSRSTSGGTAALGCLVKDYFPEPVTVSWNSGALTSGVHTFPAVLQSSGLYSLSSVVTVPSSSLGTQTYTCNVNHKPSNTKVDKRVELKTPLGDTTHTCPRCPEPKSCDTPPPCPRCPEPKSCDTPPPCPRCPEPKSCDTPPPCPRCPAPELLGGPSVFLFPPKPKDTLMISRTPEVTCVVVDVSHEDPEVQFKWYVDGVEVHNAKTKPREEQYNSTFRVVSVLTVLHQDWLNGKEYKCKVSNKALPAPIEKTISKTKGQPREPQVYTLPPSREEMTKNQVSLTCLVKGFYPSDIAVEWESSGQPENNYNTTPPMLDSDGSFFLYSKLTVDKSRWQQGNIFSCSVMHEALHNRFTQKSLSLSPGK

Turning to Protein A (from UniProt P38507 37-327), the binding efficiency in [1], in experiment [2] and in experiment [3] was more than 90% in each case. In addition, in [4], the Static Capacity (mg IgG/mL resin) stood at 11.1. Also, the 10% Breakthrough Capacity (mg IgG/mL resin) in experiment [5] was 12.9. Besides, in experiment [5], the Total Dynamic Capacity (mg IgG/mL resin) amounted to 16.3. The Bound (% of Total Load) stood at 89% in experiment [6], 85% in experiment [7], 96% in experiment [8] and 0% in experiment [9]. Further, the bdg % (of Total Load) turned out to be 92% in experiment [6], 93% in [7], 93% in experiment [8] and 5% in [9].
